Source: patent US20180135060A1 (OURO FINO SAUDE ANIMAL LTDA, published 2018)

Molecular target: T1, Rrp4 protein of the Pyrococcus abyssi exosome, as encoded by pMRKA-EXO (Pyrococcus abyssi, UniProt Q9V120 2-263)
T1 construct: Co-expressed in E. coli; also called PAB0419
T1 sequence: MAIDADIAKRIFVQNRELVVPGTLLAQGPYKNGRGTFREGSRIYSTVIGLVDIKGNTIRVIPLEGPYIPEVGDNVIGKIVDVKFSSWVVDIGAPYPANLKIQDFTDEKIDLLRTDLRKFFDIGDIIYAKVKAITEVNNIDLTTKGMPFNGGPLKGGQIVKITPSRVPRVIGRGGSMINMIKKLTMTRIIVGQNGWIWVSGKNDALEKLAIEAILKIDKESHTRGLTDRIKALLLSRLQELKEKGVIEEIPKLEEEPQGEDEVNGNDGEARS
Experiment: co-expression in E. coli and co-purification, gel (FIG. 11)

B1: Rrp41 protein of the Pyrococcus abyssi exosome, as encoded by pMRKA-EXO (R89T, K91S) (other)
chain: MATRAEKPEGLKLIDENGRRIDGRKKYELRPIKMEVGVLKNANGSAYIEWGKNKIIAAVYGPRELHPKHLQRPDRAILRVRYNMAPFSVEETKSPGPDRRSIEISKVIKGALEPALILEMFPRTAIDVFIEVLQADAGTRVAGITAASLALADAGIPMRDLVAACAAGKIEGEIVLDLNKEEDNYGEADVPVAIMPLKNDITLLQMDGYLTKDEFIEAVKLAIKGAKAVYQKQREALKEKYLKIAQEVEGS
notes: also called PAB0420
  binding result: binds
